According to IntAct's records for PubMed 10764785:

target: rpod_ecoli rpoD (UniProt P00579)
Sequence (P00579 whole entry): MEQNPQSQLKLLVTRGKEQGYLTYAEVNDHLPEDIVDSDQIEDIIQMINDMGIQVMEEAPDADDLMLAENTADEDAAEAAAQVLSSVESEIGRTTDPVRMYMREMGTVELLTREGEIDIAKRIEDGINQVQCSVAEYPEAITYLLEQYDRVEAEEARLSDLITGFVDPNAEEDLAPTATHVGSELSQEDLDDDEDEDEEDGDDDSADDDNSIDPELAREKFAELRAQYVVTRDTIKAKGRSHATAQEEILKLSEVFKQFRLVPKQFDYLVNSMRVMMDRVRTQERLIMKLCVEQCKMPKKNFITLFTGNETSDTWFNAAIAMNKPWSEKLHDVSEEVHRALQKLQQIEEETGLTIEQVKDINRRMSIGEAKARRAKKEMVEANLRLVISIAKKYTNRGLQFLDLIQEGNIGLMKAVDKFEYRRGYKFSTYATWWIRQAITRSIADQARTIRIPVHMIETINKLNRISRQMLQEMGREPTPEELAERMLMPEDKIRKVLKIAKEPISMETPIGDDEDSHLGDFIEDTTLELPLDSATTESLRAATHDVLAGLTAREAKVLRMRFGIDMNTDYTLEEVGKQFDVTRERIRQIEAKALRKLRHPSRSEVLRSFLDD

Row | Substance | effect of a mutation on the interaction
1 | DNA-directed RNA polymerase subunit beta' (Escherichia coli (strain K12)) (from UniProt P0A8T7) A302D | decreasing interaction
2 | DNA-directed RNA polymerase subunit beta' (Escherichia coli (strain K12)) (from UniProt P0A8T7) E295K | decreasing interaction
3 | DNA-directed RNA polymerase subunit beta' (Escherichia coli (strain K12)) (from UniProt P0A8T7) N309D | increasing interaction
4 | DNA-directed RNA polymerase subunit beta' (Escherichia coli (strain K12)) (from UniProt P0A8T7) Q300E | increasing interaction
5 | DNA-directed RNA polymerase subunit beta' (Escherichia coli (strain K12)) (from UniProt P0A8T7) R275Q | decreasing interaction
6 | DNA-directed RNA polymerase subunit beta' (Escherichia coli (strain K12)) (from UniProt P0A8T7) R293Q | decreasing interaction
7 | DNA-directed RNA polymerase subunit beta' (Escherichia coli (strain K12)) (from UniProt P0A8T7) R297S | decreasing interaction
